We go through two molecules from patent publication CN113880948A.

For this experiment, the target named is CA724抗原 (CA724). The experiment can be described thus: biolayer interferometry type kinetics, antibody captured on AMQ biosensor, antigen in solution (diluted 10-fold).

B1: 抗CA724重组抗体 (recombinant anti-CA724 antibody made in Example 1, expressed in Expi293F cells) (antibody, mouse IgG1, kappa, V domains shown)
VH: QVQLQQSDAELVKPGASVKISCKASGYTFTDHAIHWAKQKPEQGLEWIGYISPGNDDIKYNEKFKGKATLTADKSSSTAYMQLNSLTSEDSAVYFCKRSYYGHWGQGTTLTVSS
VL: DIQMTQSPASLSVSVGETVTITCRASENIYSNLAWYQQKQGKSPQLLVYAATNLADGVPSRFSGSGSGTQYSLKINSLQSEDFGSYYCQHFWGTPYTFGGGTRLEIKG
B1 showed a dissociation constant Kd of 18 nM, a koff of 0.00109 s⁻¹ and a kon of 60700 M⁻¹ s⁻¹.

B2: 抗CA724单克隆抗体 (anti-CA724 monoclonal antibody purified from the hybridoma of Example 1) (antibody, V domains shown)
VH: B1 VH
VL: DIQMTQSPASLSVSVGETVTITCRASENIYSNLAWYQQKQGKSPQLLVYAATNLADGVPSRFSGSGSGTQYSLKINSLQSEDFGSYYCQHFWGTPYTFGGGTRLEIK
B2 returned a dissociation constant Kd of 16.4 nM, an off-rate (koff) of 0.000897 s⁻¹ and an on-rate constant (kon) of 54700 M⁻¹ s⁻¹.

Broadly, the Kd is the free concentration of one partner at which half of the binding sites on the other are occupied at equilibrium, for simple one-to-one binding. Read a low Kd as tighter binding. The koff is the rate constant with which the complex falls apart. A low value points to a long-lived complex. The term kon denotes the rate constant with which the complex forms. A higher kon goes with faster complex formation.
